Assay results as given in patent US20200181238A1.
Blank lines part the entries; values can stand above or below the molecule they belong to.

Tests used:
[1] = biological target: ICAM-1 on tumor cells (HeLa, 8505C) (human) (UniProt P05362); test: cell-based or functional assay
[2] = biological target: ICAM-1 on tumor cells (HeLa, 8505C) (human) (UniProt P05362); test: flow cytometry, 8505C cells, R6.5 antibody at 10 µg/ml; ICAM-1 negative 293T control reads 0%
[3] = biological target: ICAM-1 on tumor cells (HeLa, 8505C) (human) (UniProt P05362); test: estimated from titrated R65 antibody binding to HeLa cells
[4] = biological target: ICAM-1 on tumor cells (HeLa, 8505C) (human) (UniProt P05362); test: flow cytometry, HeLa cells, R6.5 antibody at 10 µg/ml; ICAM-1 negative 293T control reads 0%

Chain of ICAM-1 on tumor cells (HeLa, 8505C) (human) (P05362 28-532): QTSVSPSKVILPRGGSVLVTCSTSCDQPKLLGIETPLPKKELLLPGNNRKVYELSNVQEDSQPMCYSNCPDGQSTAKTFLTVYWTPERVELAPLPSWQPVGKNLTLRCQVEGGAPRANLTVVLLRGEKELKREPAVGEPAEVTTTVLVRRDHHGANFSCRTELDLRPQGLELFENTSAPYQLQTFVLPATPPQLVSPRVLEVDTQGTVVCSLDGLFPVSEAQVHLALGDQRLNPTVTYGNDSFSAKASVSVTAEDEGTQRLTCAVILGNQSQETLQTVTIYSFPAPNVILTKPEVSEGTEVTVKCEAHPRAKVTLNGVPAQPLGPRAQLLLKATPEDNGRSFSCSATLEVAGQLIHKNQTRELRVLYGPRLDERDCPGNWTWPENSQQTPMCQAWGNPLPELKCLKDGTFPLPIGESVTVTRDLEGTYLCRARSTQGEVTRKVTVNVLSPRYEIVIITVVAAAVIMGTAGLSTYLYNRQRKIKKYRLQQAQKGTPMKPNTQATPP

Molecule: R6.5-CAR (third generation anti-ICAM-1 chimeric antigen receptor on primary human T cells) (from UniProt P10747 153-220; Q07011 214-255; P20963 52-164) (scFv)
- percent of 8505C cells viable after 24 hours with CAR T cells, E:T 2.5:1 (bioluminescence, normalized to non-transduced T cells) [1]: 52%
- percent of HeLa cells viable after 24 hours with CAR T cells, E:T 2.5:1 (bioluminescence, normalized to non-transduced T cells) [1]: 17%

- % ICAM-1 positive cells [2]: 97%
- Kd [3]: 10 nM
- % ICAM-1 positive cells [4]: 100%
B1: murine monoclonal anti-human ICAM-1 antibody R6.5 (antibody, from another filing, V domains shown)
VH: QVQLQQSGPELVRPGVSVKISCKGSGYTFIDYAIHWVKESHAKSLEWIGVISAYSGDTNYNQKFKGKATMTVDKSSNTAYLELARLTSEDSAIYYCARGGWLLLSFDYWGQGTTLTVSS
VL: DVVMTQSPLSLPVSLGDQASISCRSSQSLVHSNGNNYLHWYLQKSGQAPKLLIYKVSNRFSGVPDRFSGSGSGTDFTLKISRVEAEDLGVYFCSQSTHVPLTFGGGTKLEIKR
